{"source": "patent US20260167721A1", "about": "(ABLEXIS, published 2026)", "key": {"recombinant CD3 proteins [1]": {"molecular_target": "T1, recombinant CD3 proteins (UniProt P07766 23-126)", "T1 construct": "elsewhere it uses human CD3 E/D and E/G heterodimers", "T1 sequence (P07766 23-126)": "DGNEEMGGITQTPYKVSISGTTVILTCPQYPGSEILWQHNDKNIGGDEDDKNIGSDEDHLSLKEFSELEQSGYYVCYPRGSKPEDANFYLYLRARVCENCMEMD", "assay": "Octet BLI, recombinant CD3; Full R^2 0.9905"}, "recombinant CD3 proteins [2]": {"molecular_target": "T1, recombinant CD3 proteins", "assay": "Octet BLI, recombinant CD3; Full R^2 0.987"}, "recombinant CD3 proteins [3]": {"molecular_target": "T1, recombinant CD3 proteins", "assay": "Octet BLI, recombinant CD3; Full R^2 0.9881"}}}
{"binder": "CD3 × CD33-BspAb80 (bispecific antibody) chain 1: QVQLQESGPGLVKPSETLSLTCTVSGGSISSYYWSWIRQPAGKCLEWIGRIYTSGSTKYNPSLKSRVTMSVDTSKNQFSLKLISVTAADTAVYFCARERIRDLYFDYWGQGTLVTVSSGGGGSGGGGSGGGGSGGGGSNFMLTQPHSVSESPGKTVTISCTRTSGSIASNYVQWYQQRPGSSPTTVIYEDNQRPSGVPDRFSGSIDSSSNSASLTISGLKTEDEAAYYCQSYDRSNRVFGCGTKLTVLDKTHTCPPCPAPEFEGGPSVFLFPPKPKDTLMISRTPEVTCVVVDVSHEDPEVKFNWYVDGVEVHNAKTKPREEQYNSTYRVVSVLTVLHQDWLNGKEYKCKVSNKALPASIEKTISKAKGQPREPQVYTLPPCREEMTKNQVSLWCLVKGFYPSDIAVEWESNGQPENNYKTTPPVLDSDGSFFLYSKLTVDKSRWQQGNVFSCSVMHEALHNHYTQKSLSLSPGK chain 2: EVQLVQSGAEVKKPGSSVKVSCKASGYTITDSNIHWVRQAPGQSLEWIGYIYPYNGGTDYNQKFKNRATLTVDNPTNTAYMELSSLRSEDTAFYYCVNGNPWLAYWGQGTLVTVSSASTKGPSVFPLAPSSKSTSGGTAALGCLVKDYFPEPVTVSWNSGALTSGVHTFPAVLQSSGLYSLSSVVTVPSSSLGTQTYICNVNHKPSNTKVDKRVEPKSCDKTHTCPPCPAPEFEGGPSVFLFPPKPKDTLMISRTPEVTCVVVDVSHEDPEVKFNWYVDGVEVHNAKTKPREEQYNSTYRVVSVLTVLHQDWLNGKEYKCKVSNKALPASIEKTISKAKGQPREPQVCTLPPSREEMTKNQVSLSCAVKGFYPSDIAVEWESNGQPENNYKTTPPVLDSDGSFFLVSKLTVDKSRWQQGNVFSCSVMHEALHNRFTQKSLSLSPGK chain 3: DIQLTQSPSTLSASVGDRVTITCRASESLDNYGIRFLTWFQQKPGKAPKLLMYAASNQGSGVPSRFSGSGSGTEFTLTISSLQPDDFATYYCQQTKEVPWSFGQGTKVEVKRTVAAPSVFIFPPSDEQLKSGTASVVCLLNNFYPREAKVQWKVDNALQSGNSQESVTEQDSKDSTYSLSSTLTLSKADYEKHKVYACEVTHQGLSSPVTKSFNRGEC", "values": [{"measurement": "Kd", "setting": "recombinant CD3 proteins [1]", "value": 6.06, "unit": "nM"}, {"measurement": "koff", "setting": "recombinant CD3 proteins [1]", "value": 0.00186, "unit": "s⁻¹"}, {"measurement": "kon", "setting": "recombinant CD3 proteins [1]", "value": 308000, "unit": "M⁻¹ s⁻¹"}]}
{"binder": "CD3 × CD33-BspAb82 (bispecific antibody) chain 1: EVQLVESGGGLVKPGGSLRLSCAASGLTFSTYSMNWVRQAPGKCLEWVSSISSSGSYVYYADSVKGRFTMSRDNAKNSLYLQMNSLRAEDTAVYYCARERRELLFDYWGQGTLVTVSSGGGGSGGGGSGGGGSGGGGSNFMLTQPHSVSESPGKTVTISCTRSSGSIASNYVQWYQQRPGSSPTSVIYEDNQRPSGVPDRFSGSIDSSSNSASLTISGLKTEDEADYYCQSYDRSNRVFGCGTKLTVLDKTHTCPPCPAPEFEGGPSVFLFPPKPKDTLMISRTPEVTCVVVDVSHEDPEVKFNWYVDGVEVHNAKTKPREEQYNSTYRVVSVLTVLHQDWLNGKEYKCKVSNKALPASIEKTISKAKGQPREPQVYTLPPCREEMTKNQVSLWCLVKGFYPSDIAVEWESNGQPENNYKTTPPVLDSDGSFFLYSKLTVDKSRWQQGNVFSCSVMHEALHNHYTQKSLSLSPGK chain 2: EVQLVQSGAEVKKPGSSVKVSCKASGYTITDSNIHWVRQAPGQSLEWIGYIYPYNGGTDYNQKFKNRATLTVDNPTNTAYMELSSLRSEDTAFYYCVNGNPWLAYWGQGTLVTVSSASTKGPSVFPLAPSSKSTSGGTAALGCLVKDYFPEPVTVSWNSGALTSGVHTFPAVLQSSGLYSLSSVVTVPSSSLGTQTYICNVNHKPSNTKVDKRVEPKSCDKTHTCPPCPAPEFEGGPSVFLFPPKPKDTLMISRTPEVTCVVVDVSHEDPEVKFNWYVDGVEVHNAKTKPREEQYNSTYRVVSVLTVLHQDWLNGKEYKCKVSNKALPASIEKTISKAKGQPREPQVCTLPPSREEMTKNQVSLSCAVKGFYPSDIAVEWESNGQPENNYKTTPPVLDSDGSFFLVSKLTVDKSRWQQGNVFSCSVMHEALHNRFTQKSLSLSPGK chain 3: DIQLTQSPSTLSASVGDRVTITCRASESLDNYGIRFLTWFQQKPGKAPKLLMYAASNQGSGVPSRFSGSGSGTEFTLTISSLQPDDFATYYCQQTKEVPWSFGQGTKVEVKRTVAAPSVFIFPPSDEQLKSGTASVVCLLNNFYPREAKVQWKVDNALQSGNSQESVTEQDSKDSTYSLSSTLTLSKADYEKHKVYACEVTHQGLSSPVTKSFNRGEC", "values": [{"measurement": "Kd", "setting": "recombinant CD3 proteins [2]", "value": 18.7, "unit": "nM"}, {"measurement": "koff", "setting": "recombinant CD3 proteins [2]", "value": 0.00536, "unit": "s⁻¹"}, {"measurement": "kon", "setting": "recombinant CD3 proteins [2]", "value": 287000, "unit": "M⁻¹ s⁻¹"}]}
{"binder": "CD3 × CD33-BspAb81 (bispecific antibody) chain 1: QVQLQESGPGLVKPSQTLSLTCTVSGGSISSGGYYWSWIRQHPGKCLEWIGYIYYSGSTYYNPSLKSRVTISVDTSKDQFSLKLSSVTAADTAVYYCARERKTSLPFDIWGQGTMVTVSSGGGGSGGGGSGGGGSGGGGSNFMLTQPHSVSESPGKTVTISCTRSSGSIASNYVQWYQQRPGSSPTTVIYEDNQRPSGVPDRFSGSIDSSSNSASLTISGLKTEDEAYYYCQSFDSSNRVFGCGTKLTVLDKTHTCPPCPAPEFEGGPSVFLFPPKPKDTLMISRTPEVTCVVVDVSHEDPEVKFNWYVDGVEVHNAKTKPREEQYNSTYRVVSVLTVLHQDWLNGKEYKCKVSNKALPASIEKTISKAKGQPREPQVYTLPPCREEMTKNQVSLWCLVKGFYPSDIAVEWESNGQPENNYKTTPPVLDSDGSFFLYSKLTVDKSRWQQGNVFSCSVMHEALHNHYTQKSLSLSPGK chain 2: EVQLVQSGAEVKKPGSSVKVSCKASGYTITDSNIHWVRQAPGQSLEWIGYIYPYNGGTDYNQKFKNRATLTVDNPTNTAYMELSSLRSEDTAFYYCVNGNPWLAYWGQGTLVTVSSASTKGPSVFPLAPSSKSTSGGTAALGCLVKDYFPEPVTVSWNSGALTSGVHTFPAVLQSSGLYSLSSVVTVPSSSLGTQTYICNVNHKPSNTKVDKRVEPKSCDKTHTCPPCPAPEFEGGPSVFLFPPKPKDTLMISRTPEVTCVVVDVSHEDPEVKFNWYVDGVEVHNAKTKPREEQYNSTYRVVSVLTVLHQDWLNGKEYKCKVSNKALPASIEKTISKAKGQPREPQVCTLPPSREEMTKNQVSLSCAVKGFYPSDIAVEWESNGQPENNYKTTPPVLDSDGSFFLVSKLTVDKSRWQQGNVFSCSVMHEALHNRFTQKSLSLSPGK chain 3: DIQLTQSPSTLSASVGDRVTITCRASESLDNYGIRFLTWFQQKPGKAPKLLMYAASNQGSGVPSRFSGSGSGTEFTLTISSLQPDDFATYYCQQTKEVPWSFGQGTKVEVKRTVAAPSVFIFPPSDEQLKSGTASVVCLLNNFYPREAKVQWKVDNALQSGNSQESVTEQDSKDSTYSLSSTLTLSKADYEKHKVYACEVTHQGLSSPVTKSFNRGEC", "values": [{"measurement": "Kd", "setting": "recombinant CD3 proteins [3]", "value": 69.4, "unit": "nM"}, {"measurement": "koff", "setting": "recombinant CD3 proteins [3]", "value": 0.00791, "unit": "s⁻¹"}, {"measurement": "kon", "setting": "recombinant CD3 proteins [3]", "value": 114000, "unit": "M⁻¹ s⁻¹"}]}
